In assay [1] the target is T1, human PD-1 expressed on cells (human, UniProt Q15116 25-288).
T1 construct: whole, on cells; also called HuT78/PD-1; NK92MI/PD-1
As to the kind of experiment: FACS on PD-1-expressing cells.

Assay [2] addresses P3Z chimeric PD-1 receptor (human). Briefly: cell-based or functional assay.
The target in assay [3] is T1, human PD-1 expressed on cells. Briefly: cell-based or functional assay.
For assay [4], the target named is T2, human FcγRIIIA (V158) (human, UniProt P08637 17-254).
T2 construct: whole, on cells; also called CD16 (V158 allele)
T2 sequence (P08637 17-254 F176V limits assumed): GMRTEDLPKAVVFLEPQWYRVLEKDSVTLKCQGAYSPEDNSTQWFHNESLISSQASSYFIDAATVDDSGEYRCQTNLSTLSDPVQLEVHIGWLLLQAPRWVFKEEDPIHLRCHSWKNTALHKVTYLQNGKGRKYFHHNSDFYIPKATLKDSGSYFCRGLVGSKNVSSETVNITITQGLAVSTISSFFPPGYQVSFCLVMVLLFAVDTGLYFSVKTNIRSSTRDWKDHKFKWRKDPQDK
Briefly: flow cytometry, FcγR+ HEK293 cells.
Method: (§1) Binding of various IgG4 mutants to FcγRs was determined by flow cytometry. In brief, a series of HEK293 transfectants expressing human FcγRs were established. These transfectants expressed FcγRI, FcγRIIA, FcγRIIB or FcγRIIIA Multi-subunit FcγRs (i.e., FcγR1 and FcγRIIIA) were co-expressed with FcRγ. Polymorphic variants (i.e., FcγRIIA H131 and R131, FcγRIIIA F158 and V158) were also included.

In assay [5] the target is T3, human FcγRIIIA (F158) (human, UniProt P08637 17-254).
T3 construct: whole, on cells
T3 sequence (P08637 17-254): as the sequence (P08637 17-254 F176V limits assumed) above, with V160F counted along it
As to the kind of experiment: flow cytometry, FcγR+ HEK293 cells. A general note: A flow cytometer gives signals particle by particle.
Method: as §1

For assay [6], the target named is T4, human FcγRI (human, UniProt P12314 16-374).
T4 construct: whole, on cells; also called FcγR1
T4 sequence (P12314 16-374): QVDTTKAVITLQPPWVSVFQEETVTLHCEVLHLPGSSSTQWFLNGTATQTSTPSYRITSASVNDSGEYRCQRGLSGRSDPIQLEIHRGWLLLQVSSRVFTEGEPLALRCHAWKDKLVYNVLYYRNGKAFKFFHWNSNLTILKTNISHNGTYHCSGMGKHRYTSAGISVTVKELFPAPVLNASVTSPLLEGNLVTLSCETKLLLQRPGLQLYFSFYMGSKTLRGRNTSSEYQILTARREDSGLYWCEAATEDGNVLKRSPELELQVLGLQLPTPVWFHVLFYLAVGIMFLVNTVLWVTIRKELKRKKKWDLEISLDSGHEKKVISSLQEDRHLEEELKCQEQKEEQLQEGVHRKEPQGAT
As to the kind of experiment: flow cytometry, FcγR+ HEK293 cells.
Method: as §1

Assay [7] has as its target P3Z chimeric PD-1 receptor (human). As to the kind of experiment: cell-based or functional assay. The source holds these as a separate data set.
The target in assay [8] is T1, human PD-1 expressed on cells. As to the kind of experiment: cell-based or functional assay. The source holds these as a separate data set.
The target is the same in assay [9]. Briefly: FACS on PD-1-expressing cells. This is another data set of the same source.
For assay [10], the target named is T5, wild-type human PD-1 recombinant protein (PD-1/His or PD-1/Fc, not said which) (human, UniProt Q15116 21-168).
T5 construct: also called WT PD-1
T5 sequence (Q15116 21-168 limits assumed): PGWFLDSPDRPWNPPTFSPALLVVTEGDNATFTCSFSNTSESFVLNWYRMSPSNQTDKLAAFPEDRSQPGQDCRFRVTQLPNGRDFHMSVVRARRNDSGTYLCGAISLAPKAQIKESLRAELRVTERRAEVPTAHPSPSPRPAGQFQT
Briefly: ELISA on coated recombinant PD-1. In general terms: ELISA stands for enzyme-linked immunosorbent assay.

Assay [11] concerns the target T1, human PD-1 expressed on cells. As to the kind of experiment: FACS on PD-1-expressing cells, goat anti-human IgG detection.
Assay [12] concerns the target P3Z chimeric PD-1 receptor (human). Briefly: cell-based or functional assay. This is another data set of the same source.
Assay [13] deals with T1, human PD-1 expressed on cells. Briefly: cell-based or functional assay. This is another data set of the same source.

Results on eleven molecules are retold here after US8735553 (BEIGENE SWITZERLAND, dated 2014).

Substitutions are numbered along the chain they refer to. Like-named read-outs stand apart in the source and are kept apart here.

Chain of P3Z chimeric PD-1 receptor (human) (chain, as listed by the source mutant limits assumed): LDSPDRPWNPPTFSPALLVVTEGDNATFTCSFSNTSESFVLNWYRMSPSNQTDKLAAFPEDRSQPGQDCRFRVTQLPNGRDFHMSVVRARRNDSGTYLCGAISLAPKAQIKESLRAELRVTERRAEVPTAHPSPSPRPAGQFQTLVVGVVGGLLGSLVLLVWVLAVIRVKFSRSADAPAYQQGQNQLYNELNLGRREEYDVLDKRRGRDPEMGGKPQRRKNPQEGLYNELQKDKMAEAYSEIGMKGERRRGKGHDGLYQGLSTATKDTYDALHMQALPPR
T1 sequence (Q15116 25-288): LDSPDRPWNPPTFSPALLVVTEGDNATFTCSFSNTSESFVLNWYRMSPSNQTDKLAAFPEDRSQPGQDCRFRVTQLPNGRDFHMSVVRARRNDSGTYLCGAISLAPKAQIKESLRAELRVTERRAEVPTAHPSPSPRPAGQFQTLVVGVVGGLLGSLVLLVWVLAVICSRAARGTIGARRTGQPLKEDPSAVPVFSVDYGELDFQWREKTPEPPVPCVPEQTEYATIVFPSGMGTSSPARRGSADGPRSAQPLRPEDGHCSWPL

B1: hu326-2 S84N (antibody, V domains shown)
VH: QVQLVQSGSELKKPGASVKVSCKASGYTFTNYGMNWVRQAPGQGLEWMGWINNNNGEPTYAQGFRGRFVFSLDTSASTAYLQINSLKTEDTAVYFCARDVMDYWGQGTTVTVSS
VL: DIVLTQSPASLAVSPGQRATITCRASESVDNYGYSFMHWYQQKPGQPPKLLIYRASNLESGVPARFSGSGSRTDFTLTINPVEANDTANYYCQQSKEYPTFGGGTKVEIK
notes: mAb; constant regions not restated (hu326-1 is IgG2 / kappa); Back mutation to murine
A word on the EC50: it is the concentration needed to bring the measured effect to its halfway point. For the molecule B1, the EC50 in assay [1] amounted to 0.131 µg/mL. Also, in assay [2], the “IL-2 release in HuT78/P3Z, IC50” value came to 0.06 µg/mL and the “IL-2 release in HuT78/P3Z, Max inhibition” value turned out to be 96.5%. Also, in [3], the “IL-2 release in HuT78/PD-1, EC50” value was 0.126 µg/mL and the “IL-2 release in HuT78/PD-1, Top line” value amounted to 1020 pg/mL.

B2: hu326-4A3/IgG4mt10 (antibody)
heavy: QVQLVQSGSELKKPGASVKVSCKASGYTFTNYGMNWVRQAPGQGLKWMGWINNNNAEPTYAQDFRGRFVFSLDTSASTAYLQISSLKTEDTAVYYCARDVMDYWGQGTLVTVSSASTKGPSVFPLAPCSRSTSESTAALGCLVKDYFPEPVTVSWNSGALTSGVHTFPAVLQSSGLYSLSSVVTVPSSSLGTKTYTCNVDHKPSNTKVDKRVESKYGPPCPPCPAPPVAGGPSVFLFPPKPKDTLMISRTPEVTCVVVAVSQEDPEVQFNWYVDGVEVHNAKTKPREEQFNSTYRVVSVLTVVHQDWLNGKEYKCKVSNKGLPSSIEKTISKAKGQPREPQVYTLPPSQEEMTKNQVSLTCLVKGFYPSDIAVEWESNGQPENNYKTTPPVLDSDGSFFLYSKLTVDKSRWQEGNVFSCSVMHEALHNHYTQKSLSLSLGK
VL: B1 VL with R72G, N85E
notes: Light chain constant region not restated for this format; copies: 2 + 2
Take B2: the binding result in assay [4], in [5] and in assay [6] was “no binding” in each case.

B3: hu326-1 (antibody, IgG2, V domains shown, not shown: a dimerising Fc or GST)
VH: B1 VH with N84S
VL: DIVLTQSPASLAVSPGQRATITCRASESVDNYGYSFMHWYQQKPGQPPKLLIYRASNLESGVPARFSGSGSRTDFTLTINPVEANDTANYYCQQSKEYPTFGGGTKVEIKR
notes: domain: Ig kappa C-region; Initial humanized version, IgG2 / kappa
Take B3: in [7], the “Assay-2 IL-2 release, IC50 (HuT78/P3Z + HEK293/PD-L1)” value (from here on “Assay-2 IL-2 release, IC50”) turned out to be 0.1 µg/mL and the “Assay-2 IL-2 release, Max inhibition (HuT78/P3Z + HEK293/PD-L1)” value (“Assay-2 IL-2 release, Max inhibition” for short) was 84.4%. For the same molecule, in assay [8], the “Assay-1 IL-2 release, EC50 (HuT78/PD-1 + HEK293/OS8/PD-L1)” value (shortened to “Assay-1 IL-2 release, EC50”) came to 0.112 µg/mL and the “Assay-1 IL-2 release, Top line (HuT78/PD-1 + HEK293/OS8/PD-L1)” value (shortened to “Assay-1 IL-2 release, Top line”) worked out at 1140 pg/mL. Moreover, the concentration giving a half-maximal response (EC50) in assay [1] was found to be 0.317 µg/mL. For the same molecule, in assay [9], the EC50 stood at 0.117 µg/mL and the “Top MFI” value came out at 129 MFI. In assay [2], the “IL-2 release in HuT78/P3Z, IC50” value is 0.087 µg/mL and the “IL-2 release in HuT78/P3Z, Max inhibition” value stood at 92.4%. Moreover, in assay [3], the “IL-2 release in HuT78/PD-1, EC50” value stood at 0.213 µg/mL and the “IL-2 release in HuT78/PD-1, Top line” value amounted to 987 pg/mL.

B4: hu326-3G1 (antibody, V domains shown)
VH: B1 VH with S9P, E46K, G63D, N84S, F95Y, T109L
VL: B1 VL
notes: Humanized mAb
As to B4, the EC50 in assay [10] came out at 0.088 µg/mL.

B5: hu326-2 S85N (antibody, V domains shown)
VH: B1 VH with N84S, S85N
VL: B1 VL
notes: as for B1
In [1], B5 had a concentration for a half-maximal effect (EC50) of 0.11 µg/mL. Also, in assay [2], the “IL-2 release in HuT78/P3Z, IC50” value came to 0.093 µg/mL and the “IL-2 release in HuT78/P3Z, Max inhibition” value is 95.6%. Moreover, in [3], the “IL-2 release in HuT78/PD-1, EC50” value stood at 0.104 µg/mL and the “IL-2 release in HuT78/PD-1, Top line” value worked out at 932 pg/mL.

B6: ch317 (antibody, human IgG2, V domains shown, not shown: a dimerising Fc or GST)
VH: QVQLKESGPGLVAPSKNLSITCTVSGFSLTSYGVHWIRQPPGKGLEWLGVIWAGGSTNYNSALMSRLSISKDNSRSQVFLRMNSLQTDDTAMYYCARAYGNYWYIDVWGAGTTVTVSS
VL: DIVMTQTPKFLLVSAGDRVTITCKASQSVSNDVAWYQQKPGQSPKLLINYAFHRFTGVPDRFTGSGYGTDFIFTISTVQAEDLAVYFCHQAYSSPYTFGGGTKLEMKR
notes: domain: Ig kappa C-region; Murine VH and Vκ of mu317 on human IgG2 / kappa
In turn, B6 came in with a concentration for a half-maximal effect (EC50) in [11] of 0.36 µg/mL. Moreover, in assay [12], the “Assay-2 IL-2 release, IC50” value was found to be 0.1 µg/mL and the “Assay-2 IL-2 release, Max inhibition” value worked out at 99%. Moreover, in assay [13], the “Assay-1 IL-2 release, EC50” value was 0.08 µg/mL and the “Assay-1 IL-2 release, Top line” value stood at 294 pg/mL.

B7: hu317-4B6/IgG4mt10 (antibody)
heavy: QVQLQESGPGLVKPSETLSLTCTVSGFSLTSYGVHWIRQPPGKGLEWIGVIYADGSTNYNPSLKSRVTISKDTSKNQVSLKLSSVTAADTAVYYCARAYGNYWYIDVWGQGTTVTVSSASTKGPSVFPLAPCSRSTSESTAALGCLVKDYFPEPVTVSWNSGALTSGVHTFPAVLQSSGLYSLSSVVTVPSSSLGTKTYTCNVDHKPSNTKVDKRVESKYGPPCPPCPAPPVAGGPSVFLFPPKPKDTLMISRTPEVTCVVVAVSQEDPEVQFNWYVDGVEVHNAKTKPREEQFNSTYRVVSVLTVVHQDWLNGKEYKCKVSNKGLPSSIEKTISKAKGQPREPQVYTLPPSQEEMTKNQVSLTCLVKGFYPSDIAVEWESNGQPENNYKTTPPVLDSDGSFFLYSKLTVDKSRWQEGNVFSCSVMHEALHNHYTQKSLSLSLGK
VL: DIVMTQSPDSLAVSLGERATINCKSSESVSNDVAWYQQKPGQPPKLLINYAFHRFTGVPDRFSGSGYGTDFTLTISSLQAEDVAVYYCHQAYSSPYTFGQGTKLEIK
notes: as for B2
For B7, the binding result in assay [4], in assay [5] and in assay [6] was “no binding” throughout.

B8: ch326 (antibody, human IgG2, V domains shown, not shown: a dimerising Fc or GST)
VH: QIQLVQSGPELKKPGETVKISCKASGYTFTNYGMNWVKQAPGKGLKWMGWINNNNGEPTYAEEFKGRFAFSLETSASTAYLQINNLKNEDTATYFCARDVMDYWGQGTSVTVSS
VL: B3 VL with P15L, T22S, K49Q, V62I, D74G, N85D, T87V, N89T, V107L, I109V
notes: domain: Ig kappa C-region; Murine VH and Vκ of mu326 on human IgG2 / kappa
For the molecule B8, in [7], the “Assay-2 IL-2 release, IC50” value stood at 0.12 µg/mL and the “Assay-2 IL-2 release, Max inhibition” value was 81%. Also, in assay [8], the “Assay-1 IL-2 release, EC50” value came to 0.074 µg/mL and the “Assay-1 IL-2 release, Top line” value is 1060 pg/mL. Further, the concentration for a half-maximal effect (EC50) in assay [1] was 0.118 µg/mL. For the same molecule, in assay [9], the EC50 came out at 0.072 µg/mL and the “Top MFI” value came to 163 MFI. Further, in assay [2], the “IL-2 release in HuT78/P3Z, IC50” value was determined as 0.074 µg/mL and the “IL-2 release in HuT78/P3Z, Max inhibition” value amounted to 93%. In addition, in [3], the “IL-2 release in HuT78/PD-1, EC50” value worked out at 0.135 µg/mL and the “IL-2 release in HuT78/PD-1, Top line” value amounted to 993 pg/mL.

B9: hu317-1 (antibody, IgG2, V domains shown, not shown: a dimerising Fc or GST)
VH: QVQLQESGPGLVKPSETLSLTCTVSGFSLTSYGVHWIRQPPGKGLEWLGVIWAGGSTNYNPSLKSRLTISKDNSKSQVSLKMSSVTAADTAVYYCARAYGNYWYIDVWGQGTTVTVSS
VL: DIVMTQSPDSLAVSLGERATINCKASQSVSNDVAWYQQKPGQPPKLLINYAFHRFTGVPDRFSGSGYGTDFTLTISSLQAEDVAVYYCHQAYSSPYTFGGGTKLEIKR
notes: as for B3
For B9, a half-maximal response in [11] (EC50) required 0.46 µg/mL. In [12], the “Assay-2 IL-2 release, IC50” value worked out at 0.11 µg/mL and the “Assay-2 IL-2 release, Max inhibition” value was 99.8%. Besides, in assay [13], the “Assay-1 IL-2 release, EC50” value was 0.09 µg/mL and the “Assay-1 IL-2 release, Top line” value is 386 pg/mL.

B10: hu317-4B5 (antibody, V domains shown)
VH: B9 VH with L48I, W52Y, L67V, N73T, S76N, M82L
VL: B7 VL
notes: Humanized mAb
For the molecule B10, in assay [10], the EC50 amounted to 0.057 µg/mL.

B11: hu317-4B2 (antibody, V domains shown)
VH: B9 VH with L48I, W52Y, L67V, N73T, S76N, V78F, M82L
VL: B7 VL
notes: Humanized mAb
In the case of B11, in [10], the EC50 worked out at 0.066 µg/mL.
